First the molecules themselves.
B1: Latent membrane protein 1 (Epstein-Barr virus (strain B95-8) (HHV-4)), P03230 (parent)
chain: MEHDLERGPPGPRRPPRGPPLSSSLGLALLLLLLALLFWLYIVMSDWTGGALLVLYSFALMLIIIILIIFIFRRDLLCPLGALCILLLMITLLLIALWNLHGQALFLGIVLFIFGCLLVLGIWIYLLEMLWRLGATIWQLLAFFLAFFLDLILLIIALYLQQNWWTLLVDLLWLLLFLAILIWMYYHGQRHSDEHHHDDSLPHPQQATDDSGHESDSNSNEGRHHLLVSGAGDGPPLCSQNLGAPGGGPDNGPQDPDNTDDNGPQDPDNTDDNGPHDPLPQDPDNTDDNGPQDPDNTDDNGPHDPLPHSPSDSAGNDGGPPQLTEEVENKGGDQGPPLMTDGGGGHSHDSGHGGGDPHLPTLLLGSSGSGGDDDDPHGPVQLSYYD

The results in this text go back to IntAct's records for PubMed 22904686.

This assay covers variants of B1. Conditions: with tnik_human TNIK.
For the variant Y384G, the “effect of a mutation on the interaction” value is on record as “disrupting interaction strength”.
